Article PMC11209618

Assays:
[1] = target: voltage-gated sodium channel Nav1.4 (UniProt P35499)
[2] = target: voltage-gated sodium channel Nav1.1 (UniProt P35498)
[3] = target: voltage-gated sodium channel Nav1.2 (UniProt Q99250)
[4] = target: voltage-gated sodium channel Nav1.3 (UniProt Q9NY46)
[5] = target: voltage-gated sodium channel Nav1.4 (UniProt P35499); remark: listed apart in the source
[6] = target: voltage-gated sodium channel Nav1.5 (UniProt Q14524)
[7] = target: voltage-gated sodium channel Nav1.6 (UniProt Q9UQD0)
[8] = target: voltage-gated sodium channel Nav1.7 (UniProt Q15858)
[9] = target: voltage-gated sodium channel Nav1.7 (UniProt Q15858); remark: listed apart in the source

Chain of Tst3 toxin from Tityus stigmurus venom (P0C8X5 whole entry): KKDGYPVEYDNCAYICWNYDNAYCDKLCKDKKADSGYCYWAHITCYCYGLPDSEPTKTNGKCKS
Chain of voltage-gated sodium channel Nav1.7 (Q15858 whole entry): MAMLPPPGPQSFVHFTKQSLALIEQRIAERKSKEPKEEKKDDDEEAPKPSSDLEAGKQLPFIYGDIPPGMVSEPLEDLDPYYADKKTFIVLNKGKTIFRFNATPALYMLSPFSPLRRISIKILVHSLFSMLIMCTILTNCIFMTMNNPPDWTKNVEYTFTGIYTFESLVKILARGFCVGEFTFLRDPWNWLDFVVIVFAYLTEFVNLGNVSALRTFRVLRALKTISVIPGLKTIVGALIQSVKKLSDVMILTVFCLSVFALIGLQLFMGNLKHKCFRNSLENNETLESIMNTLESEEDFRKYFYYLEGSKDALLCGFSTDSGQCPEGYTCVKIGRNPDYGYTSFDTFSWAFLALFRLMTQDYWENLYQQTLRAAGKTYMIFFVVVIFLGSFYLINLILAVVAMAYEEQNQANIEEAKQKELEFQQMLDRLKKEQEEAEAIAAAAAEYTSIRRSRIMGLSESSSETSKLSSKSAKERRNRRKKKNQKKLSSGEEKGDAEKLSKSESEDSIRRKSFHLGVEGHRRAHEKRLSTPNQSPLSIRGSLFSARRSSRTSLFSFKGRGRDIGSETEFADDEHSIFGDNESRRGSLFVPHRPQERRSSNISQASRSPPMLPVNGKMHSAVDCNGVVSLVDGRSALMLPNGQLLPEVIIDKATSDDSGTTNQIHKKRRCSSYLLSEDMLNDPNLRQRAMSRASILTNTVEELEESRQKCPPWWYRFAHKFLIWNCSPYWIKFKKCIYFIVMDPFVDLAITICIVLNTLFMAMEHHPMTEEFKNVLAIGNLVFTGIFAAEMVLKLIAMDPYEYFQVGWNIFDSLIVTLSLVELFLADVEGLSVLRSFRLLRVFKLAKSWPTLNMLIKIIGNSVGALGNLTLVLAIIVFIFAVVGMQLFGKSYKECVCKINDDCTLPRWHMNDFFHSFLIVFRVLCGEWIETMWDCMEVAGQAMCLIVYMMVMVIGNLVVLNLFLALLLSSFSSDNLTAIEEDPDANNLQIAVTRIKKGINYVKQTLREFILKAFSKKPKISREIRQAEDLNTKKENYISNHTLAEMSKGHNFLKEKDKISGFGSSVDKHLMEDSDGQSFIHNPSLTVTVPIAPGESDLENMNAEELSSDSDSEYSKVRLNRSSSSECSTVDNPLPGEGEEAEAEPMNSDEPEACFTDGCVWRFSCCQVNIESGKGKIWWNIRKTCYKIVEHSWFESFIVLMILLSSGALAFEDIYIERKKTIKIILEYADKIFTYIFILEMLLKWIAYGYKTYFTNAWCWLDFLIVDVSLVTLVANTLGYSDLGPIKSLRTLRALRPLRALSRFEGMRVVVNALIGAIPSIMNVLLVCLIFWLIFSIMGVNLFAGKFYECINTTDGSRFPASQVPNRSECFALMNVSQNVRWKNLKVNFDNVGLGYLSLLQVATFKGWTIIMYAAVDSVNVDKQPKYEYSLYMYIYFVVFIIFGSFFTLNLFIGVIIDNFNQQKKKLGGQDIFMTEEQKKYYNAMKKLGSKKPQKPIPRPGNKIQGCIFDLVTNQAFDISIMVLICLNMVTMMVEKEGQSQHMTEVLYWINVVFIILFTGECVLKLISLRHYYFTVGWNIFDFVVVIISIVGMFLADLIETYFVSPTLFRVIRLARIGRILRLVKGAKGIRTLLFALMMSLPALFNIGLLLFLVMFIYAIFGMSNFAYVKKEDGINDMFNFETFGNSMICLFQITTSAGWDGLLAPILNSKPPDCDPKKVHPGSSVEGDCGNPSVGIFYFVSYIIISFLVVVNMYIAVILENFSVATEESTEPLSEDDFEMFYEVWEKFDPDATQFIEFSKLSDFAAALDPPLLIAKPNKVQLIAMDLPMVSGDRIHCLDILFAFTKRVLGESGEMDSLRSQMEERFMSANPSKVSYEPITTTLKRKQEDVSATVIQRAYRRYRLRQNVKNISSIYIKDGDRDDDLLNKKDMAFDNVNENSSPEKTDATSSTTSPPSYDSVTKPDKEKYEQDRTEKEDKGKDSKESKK
Chain of voltage-gated sodium channel Nav1.4 (P35499 whole entry): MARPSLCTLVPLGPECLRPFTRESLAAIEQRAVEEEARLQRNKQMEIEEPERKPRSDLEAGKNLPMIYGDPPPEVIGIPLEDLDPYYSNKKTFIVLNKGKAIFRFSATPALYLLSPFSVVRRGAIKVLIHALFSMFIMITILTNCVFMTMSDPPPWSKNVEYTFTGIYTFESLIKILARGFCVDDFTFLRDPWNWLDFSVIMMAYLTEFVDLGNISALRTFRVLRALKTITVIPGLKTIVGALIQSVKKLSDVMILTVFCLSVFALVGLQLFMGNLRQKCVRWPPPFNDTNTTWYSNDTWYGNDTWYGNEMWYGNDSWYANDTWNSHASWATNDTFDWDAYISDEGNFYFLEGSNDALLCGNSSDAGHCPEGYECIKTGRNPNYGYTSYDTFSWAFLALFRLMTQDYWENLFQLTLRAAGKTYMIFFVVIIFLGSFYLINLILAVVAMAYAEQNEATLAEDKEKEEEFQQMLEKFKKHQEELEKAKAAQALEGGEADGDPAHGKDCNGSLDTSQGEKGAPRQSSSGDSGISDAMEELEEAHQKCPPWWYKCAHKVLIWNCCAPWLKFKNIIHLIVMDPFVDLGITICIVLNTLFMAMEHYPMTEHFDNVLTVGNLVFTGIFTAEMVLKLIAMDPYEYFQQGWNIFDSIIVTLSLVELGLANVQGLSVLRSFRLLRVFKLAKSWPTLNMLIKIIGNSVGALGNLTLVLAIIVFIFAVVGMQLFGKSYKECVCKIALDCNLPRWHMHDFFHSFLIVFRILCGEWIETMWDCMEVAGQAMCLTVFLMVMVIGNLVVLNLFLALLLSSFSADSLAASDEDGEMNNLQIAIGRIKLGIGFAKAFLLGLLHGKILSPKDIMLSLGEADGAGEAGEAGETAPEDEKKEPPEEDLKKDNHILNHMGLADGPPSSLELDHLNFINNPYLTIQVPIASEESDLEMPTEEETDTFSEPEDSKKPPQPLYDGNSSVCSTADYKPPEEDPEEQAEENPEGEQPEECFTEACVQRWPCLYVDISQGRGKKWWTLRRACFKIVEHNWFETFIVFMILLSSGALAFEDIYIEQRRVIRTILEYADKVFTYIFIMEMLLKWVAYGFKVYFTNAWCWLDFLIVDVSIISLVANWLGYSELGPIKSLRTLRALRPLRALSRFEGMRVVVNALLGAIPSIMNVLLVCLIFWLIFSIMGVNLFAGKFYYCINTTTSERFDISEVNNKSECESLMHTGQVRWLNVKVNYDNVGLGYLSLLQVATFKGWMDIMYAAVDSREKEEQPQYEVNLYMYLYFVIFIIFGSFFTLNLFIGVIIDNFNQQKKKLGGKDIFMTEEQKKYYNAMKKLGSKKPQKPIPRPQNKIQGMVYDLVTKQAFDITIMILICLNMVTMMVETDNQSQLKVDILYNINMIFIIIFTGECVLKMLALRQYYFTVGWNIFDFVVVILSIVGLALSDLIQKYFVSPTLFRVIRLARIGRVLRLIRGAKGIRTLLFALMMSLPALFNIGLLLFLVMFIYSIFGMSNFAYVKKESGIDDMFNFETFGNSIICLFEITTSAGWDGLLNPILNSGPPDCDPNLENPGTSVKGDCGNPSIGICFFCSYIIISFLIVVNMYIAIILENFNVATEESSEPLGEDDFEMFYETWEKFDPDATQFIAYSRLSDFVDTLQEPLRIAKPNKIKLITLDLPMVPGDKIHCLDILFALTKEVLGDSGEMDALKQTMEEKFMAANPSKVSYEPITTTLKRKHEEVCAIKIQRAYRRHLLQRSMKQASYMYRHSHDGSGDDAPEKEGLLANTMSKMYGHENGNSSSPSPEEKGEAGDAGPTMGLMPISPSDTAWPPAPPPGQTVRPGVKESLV

How did the increase of the fast inactivation time constant (Δτ) of Nav1.4 currents recorded at 0 mV, two-step protocol of the Tst3/Ts3 comparison, whole-cell patch clamp, 200 nM Tst3 [1] turn out when “Tst3 toxin from Tityus stigmurus venom (from UniProt P0C8X5 1-64) (natural protein)” was run?
The increase of the fast inactivation time constant (Δτ) of Nav1.4 currents recorded at 0 mV, two-step protocol of the Tst3/Ts3 comparison, whole-cell patch clamp, 200 nM Tst3 was 6.09 ms.

And the increase of the persistent current (ΔIPers) of Nav1.4, whole-cell patch clamp, 200 nM Tst3 [1]?
The increase of the persistent current (ΔIPers) of Nav1.4, whole-cell patch clamp, 200 nM Tst3 was 4.4%.

And the shift of the half-maximal activation voltage (ΔV1/2) of Nav1.4, whole-cell patch clamp, 200 nM Tst3 [1]?
Its shift of the half-maximal activation voltage (ΔV1/2) of Nav1.4, whole-cell patch clamp, 200 nM Tst3 is -5.19 mV.

And the shift of the half-maximal steady-state inactivation voltage (ΔV1/2h) of Nav1.4, whole-cell patch clamp, 200 nM Tst3 [1]?
Its shift of the half-maximal steady-state inactivation voltage (ΔV1/2h) of Nav1.4, whole-cell patch clamp, 200 nM Tst3 is 1.22 mV.

And the increase of the fast inactivation time constant (Δτ) of Nav1.1, whole-cell patch clamp, 200 nM Tst3 [2]?
Its increase of the fast inactivation time constant (Δτ) of Nav1.1, whole-cell patch clamp, 200 nM Tst3 is 5.71 ms.

And the shift of the half-maximal activation voltage (ΔV1/2) of Nav1.1, whole-cell patch clamp, 200 nM Tst3 [2]?
The shift of the half-maximal activation voltage (ΔV1/2) of Nav1.1, whole-cell patch clamp, 200 nM Tst3 was -7.15 mV.

And the increase of the fast inactivation time constant (Δτ) of Nav1.2, whole-cell patch clamp, 200 nM Tst3 [3]?
The increase of the fast inactivation time constant (Δτ) of Nav1.2, whole-cell patch clamp, 200 nM Tst3 was 9.17 ms.

And the shift of the half-maximal activation voltage (ΔV1/2) of Nav1.2, whole-cell patch clamp, 200 nM Tst3 [3]?
Its shift of the half-maximal activation voltage (ΔV1/2) of Nav1.2, whole-cell patch clamp, 200 nM Tst3 is -9.02 mV.

What about the increase of the fast inactivation time constant (Δτ) of Nav1.3, whole-cell patch clamp, 200 nM Tst3 [4] of the same substance?
The increase of the fast inactivation time constant (Δτ) of Nav1.3, whole-cell patch clamp, 200 nM Tst3 was 6.87 ms.

What about the shift of the half-maximal activation voltage (ΔV1/2) of Nav1.3, whole-cell patch clamp, 200 nM Tst3 [4] of the same substance?
Its shift of the half-maximal activation voltage (ΔV1/2) of Nav1.3, whole-cell patch clamp, 200 nM Tst3 is -8.68 mV.

And the increase of the fast inactivation time constant (Δτ) of Nav1.4, activation protocol of the isoform screen, whole-cell patch clamp, 200 nM Tst3 [5]?
Its increase of the fast inactivation time constant (Δτ) of Nav1.4, activation protocol of the isoform screen, whole-cell patch clamp, 200 nM Tst3 is 5.61 ms.

And the increase of the fast inactivation time constant (Δτ) of Nav1.5, whole-cell patch clamp, 200 nM Tst3 [6]?
Its increase of the fast inactivation time constant (Δτ) of Nav1.5, whole-cell patch clamp, 200 nM Tst3 is 13.2 ms.

And the shift of the half-maximal activation voltage (ΔV1/2) of Nav1.5, whole-cell patch clamp, 200 nM Tst3 [6]?
The shift of the half-maximal activation voltage (ΔV1/2) of Nav1.5, whole-cell patch clamp, 200 nM Tst3 was -8.66 mV.

And the increase of the fast inactivation time constant (Δτ) of Nav1.6, whole-cell patch clamp, 200 nM Tst3 [7]?
The increase of the fast inactivation time constant (Δτ) of Nav1.6, whole-cell patch clamp, 200 nM Tst3 was 6.37 ms.

And the shift of the half-maximal activation voltage (ΔV1/2) of Nav1.6, whole-cell patch clamp, 200 nM Tst3 [7]?
Its shift of the half-maximal activation voltage (ΔV1/2) of Nav1.6, whole-cell patch clamp, 200 nM Tst3 is -3.82 mV.

And the increase of the fast inactivation time constant (Δτ) of Nav1.7, activation protocol of the isoform screen, whole-cell patch clamp, 200 nM Tst3 [8]?
Its increase of the fast inactivation time constant (Δτ) of Nav1.7, activation protocol of the isoform screen, whole-cell patch clamp, 200 nM Tst3 is 18.8 ms.

What about the shift of the half-maximal activation voltage (ΔV1/2) of Nav1.7, whole-cell patch clamp, 200 nM Tst3 [8] of the same substance?
The shift of the half-maximal activation voltage (ΔV1/2) of Nav1.7, whole-cell patch clamp, 200 nM Tst3 was -8.55 mV.

What about the delay of fast inactivation of Nav1.7 currents recorded at 0 mV, whole-cell patch clamp, 200 nM Tst3 [9] of the same substance?
Its delay of fast inactivation of Nav1.7 currents recorded at 0 mV, whole-cell patch clamp, 200 nM Tst3 is 12.6 ms.

For “Ts3 toxin from Tityus serrulatus venom (natural protein)”, which increase of the fast inactivation time constant (Δτ) of Nav1.4 currents recorded at 0 mV, whole-cell patch clamp, 200 nM Ts3 [1] is on record?
The increase of the fast inactivation time constant (Δτ) of Nav1.4 currents recorded at 0 mV, whole-cell patch clamp, 200 nM Ts3 was 4.82 ms.

And the increase of the persistent current (ΔIPers) of Nav1.4, whole-cell patch clamp, 200 nM Ts3 [1]?
The increase of the persistent current (ΔIPers) of Nav1.4, whole-cell patch clamp, 200 nM Ts3 was 3.1%.

And the shift of the half-maximal activation voltage (ΔV1/2) of Nav1.4, whole-cell patch clamp, 200 nM Ts3 [1]?
Its shift of the half-maximal activation voltage (ΔV1/2) of Nav1.4, whole-cell patch clamp, 200 nM Ts3 is -4.15 mV.

What about the shift of the half-maximal steady-state inactivation voltage (ΔV1/2h) of Nav1.4, whole-cell patch clamp, 200 nM Ts3 [1] of the same substance?
Its shift of the half-maximal steady-state inactivation voltage (ΔV1/2h) of Nav1.4, whole-cell patch clamp, 200 nM Ts3 is 2.03 mV.

What about the delay of fast inactivation of Nav1.7 currents recorded at 0 mV, whole-cell patch clamp, 200 nM Ts3 [9] of the same substance?
The delay of fast inactivation of Nav1.7 currents recorded at 0 mV, whole-cell patch clamp, 200 nM Ts3 was 9.37 ms.
